These results are taken from ChEMBL document CHEMBL1671804, “Normal and abnormal heme biosynthesis. Part 7. Synthesis and metabolism of coproporphyrinogen-III analogues with acetate or butyrate side chains on rings C and D. Development of a modified model for the active site of coproporphyrinogen oxidase” (Bioorg Med Chem, 2011).

For data set [1], the target named is T1, Oxygen-dependent coproporphyrinogen-III oxidase, mitochondrial (Homo sapiens) (UniProt P36551).
T1 sequence (whole entry): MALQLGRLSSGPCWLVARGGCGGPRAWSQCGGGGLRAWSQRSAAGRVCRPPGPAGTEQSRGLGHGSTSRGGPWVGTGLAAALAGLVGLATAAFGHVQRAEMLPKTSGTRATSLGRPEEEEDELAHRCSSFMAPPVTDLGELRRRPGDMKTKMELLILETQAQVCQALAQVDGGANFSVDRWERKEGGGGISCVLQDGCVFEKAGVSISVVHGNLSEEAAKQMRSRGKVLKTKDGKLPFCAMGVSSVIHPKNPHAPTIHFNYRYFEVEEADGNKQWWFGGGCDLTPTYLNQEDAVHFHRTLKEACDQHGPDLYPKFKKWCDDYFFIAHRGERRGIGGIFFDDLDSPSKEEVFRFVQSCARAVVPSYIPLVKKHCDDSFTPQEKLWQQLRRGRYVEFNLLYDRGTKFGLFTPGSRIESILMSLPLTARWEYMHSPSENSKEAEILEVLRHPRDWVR
The data set can be described thus: Activity at recombinant human CPO assessed as product formation after 30 mins.

The subject of data set [2] is Uroporphyrinogen decarboxylase (Gallus gallus). Description: Activity at chicken red cell hemolysate URO-D assessed as product formation after 150 mins.
Substrate in data set [3]: Cc1c2[nH]c(c1CCC(=O)O)Cc1[nH]c(c(CCC(=O)O)c1C)Cc1[nH]c(c(CCC(=O)O)c1C)Cc1[nH]c(c(C)c1CCC(=O)O)C2
Description: (§1) Activity at recombinant human CPO.

Substrate in data set [4]: Cc1c2[nH]c(c1CCC(=O)O)Cc1[nH]c(c(CCC(=O)O)c1C)Cc1[nH]c(c(CC(=O)O)c1C)Cc1[nH]c(c(C)c1CC(=O)O)C2
The description is as §1.

Substrate in data set [5]: Cc1c2[nH]c(c1CCC(=O)O)Cc1[nH]c(c(CCC(=O)O)c1C)Cc1[nH]c(c(CCCC(=O)O)c1C)Cc1[nH]c(c(C)c1CCCC(=O)O)C2
The description is as §1.

Take `Cc1c2[nH]c(c1CCC(=O)O)Cc1[nH]c(c(CCC(=O)O)c1C)Cc1[nH]c(c(CC(=O)O)c1C)Cc1[nH]c(c(C)c1CC(=O)O)C2`: the Activity stood at 35.7% in data set [1] and 49.5% in data set [2].

B1: Oxygen-dependent coproporphyrinogen-III oxidase, mitochondrial (Homo sapiens), P36551 (protein)
chain: MALQLGRLSSGPCWLVARGGCGGPRAWSQCGGGGLRAWSQRSAAGRVCRPPGPAGTEQSRGLGHGSTSRGGPWVGTGLAAALAGLVGLATAAFGHVQRAEMLPKTSGTRATSLGRPEEEEDELAHRCSSFMAPPVTDLGELRRRPGDMKTKMELLILETQAQVCQALAQVDGGANFSVDRWERKEGGGGISCVLQDGCVFEKAGVSISVVHGNLSEEAAKQMRSRGKVLKTKDGKLPFCAMGVSSVIHPKNPHAPTIHFNYRYFEVEEADGNKQWWFGGGCDLTPTYLNQEDAVHFHRTLKEACDQHGPDLYPKFKKWCDDYFFIAHRGERRGIGGIFFDDLDSPSKEEVFRFVQSCARAVVPSYIPLVKKHCDDSFTPQEKLWQQLRRGRYVEFNLLYDRGTKFGLFTPGSRIESILMSLPLTARWEYMHSPSENSKEAEILEVLRHPRDWVR
For the molecule B1, the Km (commonly the concentration of substrate that gives half-maximal velocity) in data set [3] stood at 0.68 µM; in data set [4] it was 6.8 µM; in data set [5] it was 0.76 µM.
